Test results taken from article PMC12260524, “Identification of a VPS29 isoform with restricted association to Retriever and Retromer accessory proteins through autoinhibition” (Proceedings of the National Academy of Sciences of the …, 2025).

Molecular target: GST-VPS29C (human) (UniProt F8VXU5)
Assay: ITC; 300 μM peptide titrated into 10 μM GST-tagged VPS29C, 25 °C, 50 mM Tris-HCl pH 7.5, 200 mM NaCl, 2 mM β-mercaptoethanol; single-site model

Kd: > 100 µM
Substance: VPS35L 28 to 37 (from UniProt Q7Z3J2 28-37) (peptide)
